According to patent US20190218553, “VON WILLEBRAND FACTOR (VWF)-TARGETING AGENTS AND METHODS OF USING THE SAME” (DUKE UNIVERSITY, published 2019):

Experiments:
[1] = target: T1, von Willebrand factor (VWF) (Homo sapiens, UniProt P04275 P04275:764-2813); test: filter; Bmax 80%; 2 mM CaCl2, 37 C; details: Haematologic Technologies Inc, label: 5'-32P
Procedure: (§1) Affinity constants (Kd values) were determined using double-filter nitrocellulose filter binding assays (Rusconi et al, Thromb. Haemost. $4:841-848 (2000)). All binding studies were performed in binding buffer F (20 mM HEPES, pH 7.4, 150 mM NaCl, 2 mM CaCl₂, and 0.01% BSA) at 37° C. Human purified VWF (factor VIII free) was purchased from Haematologic Technologies Inc. (Essex Junction, Vt.) and used in the double-filter nitrocellulose filter binding assay to determine the Kd of the aptamers. Briefly, RNA were end-labeled at the 5′ end with T4 polynucleotide kinase (New England Biolabs, Beverly, Mass.) and [γ³²P] ATP (Amersham Pharmacia Biotech, Piscataway, N.J.) (Fitzwater and Polisky, Methods Enzymol. 267:275-301 (1996)). End-labeled RNA was diluted in binding buffer F, heat denatured at 65° C. for 5 minutes, and subsequently equilibrated at 37° C. Direct binding was performed by incubating trace ³²P-RNA with varying concentrations of VWF protein in binding buffer F at 37° C. for 5 min. The fraction of the nucleic acid-protein complex which bound to the nitrocellulose membrane was quantified with a phosphorimager (Molecular Dynamics, Sunnyvale, Calif.). Non-specific binding of the radiolabeled nucleic acid was subtracted out of the binding such that only specific binding remained (Wong and Lohman, Proc. Natl. Acad. Sci. USA 90:5428-5432 (1993)).

[2] = target: T1, von Willebrand factor (VWF); test: filter; Bmax 58%; 2 mM CaCl2, 37 C; details: tags: factor VIII free, Haematologic Technologies Inc; label: 5'-32P
Procedure: as §1

[3] = target: T1, von Willebrand factor (VWF); test: filter; Bmax 82%; 2 mM CaCl2, 37 C; details: tags: factor VIII free, Haematologic Technologies Inc; label: 5'-32P
Procedure: as §1

[4] = target: T1, von Willebrand factor (VWF); test: filter; Bmax 86%; 2 mM CaCl2, 37 C; details: tags: factor VIII free human purified VWF, Haematologic Technologies Inc; label: 5'-32P
Procedure: as §1

[5] = target: T1, von Willebrand factor (VWF); test: filter; Bmax 78%; 2 mM CaCl2, 37 C; details: Haematologic Technologies Inc, label: 5'-32P
Procedure: as §1

[6] = target: T1, von Willebrand factor (VWF); test: filter; Bmax 81%; 2 mM CaCl2, 37 C; details: tags: factor VIII free, Haematologic Technologies Inc; label: 5'-32P
Procedure: as §1

[7] = target: T1, von Willebrand factor (VWF); test: filter; Bmax 88%; 2 mM CaCl2, 37 C; details: Haematologic Technologies Inc, label: 5'-32P
Procedure: as §1

[8] = target: T1, von Willebrand factor (VWF); test: filter; Bmax 54%; 2 mM CaCl2, 37 C; details: tags: factor VIII free, Haematologic Technologies Inc; label: 5'-32P
Procedure: as §1

[9] = target: T1, von Willebrand factor (VWF); test: filter; Bmax 87%; 2 mM CaCl2, 37 C; details: tags: factor VIII free, Haematologic Technologies Inc; label: 5'-32P
Procedure: as §1

[10] = target: T1, von Willebrand factor (VWF); test: filter; Bmax 67%; 2 mM CaCl2, 37 C; details: tags: factor VIII free, Haematologic Technologies Inc; label: 5'-32P
Procedure: as §1

[11] = tags: factor VIII free human purified VWF

ACGAACUGCCCUCGAUCGACGCACAGACGU (ssRNA, mAmCmGmAmAmCmUmGfCfCfCmUmCmGmAmUmCmGmAfCrGfCmAmCmAmGmAmCmGfUidT) [DTRI-006]
Kd ([1]; tags: factor VIII free): 7 nM

ACGAACUGCCCUCAGCAUUAUUGCUGACGCACAGACGU (ssRNA, 2'-F C and U; 2'-OH A and G; 3' idT) [T52]
Kd [2]: 16 nM

ACGAACUGCCCUCGAUCGACGCACAGACGU (ssRNA, mAmCmGmAmAmCfUrGfCfCfCfUmCmGmAmUmCmGrAfCrGfCrAmCmAmGmAmCmGfU-idT) [T59 vrt6]
Kd [3]: 0.5 nM

ACGAACUGCCCUCGUAUUAUUUCGACGCACAGACGU (ssRNA, 2'-F C9,C10,C11,C26,C28,U36; ribo G27; rest 2'-OMe; 3' idT) [T89 vrt2]
Kd [1, 11]: 12 nM

ACGAACUGCCCUCGUAUUAUUUCGACGCACAGACGU (ssRNA, 2'-F G8,C9,C10,C11,A25,C26,G27,C28,A29; rest 2'-OMe; 3' idT) [T89 vrt10]
Kd [4]: 548 nM

ACGAACUGCCCUCGAUCGACGCACAGACGUUUUUU (ssRNA, rAfCrGmAmAmCfUrGfCfCfCfUmCmGmAmUmCmGrAfCrGfCrAmCmAmGmAfCrGfUmUmUmUmUmU-idT) [T79 vrt1]
Kd ([5]; tags: factor VIII free): 1.9 nM

ACGAACUGCCCUCGAUCGACGCACAGACGUUUUUU (ssRNA, mAmCmGmAmAmCmUmGfCfCfCmUmCmGmAmUmCmGmAfCrGfCmAmCmAmGmAmCmGfUmUmUmUmUmU-idT) [T79 vrt2]
Kd [6]: 24 nM

ACGAACUGCCCUCGUUUCAUCGACGCACAGACGU (ssRNA, 2'-F C and U; 2'-OH A and G; 3' idT) [T86]
Kd ([7]; tags: factor VIII free): 16 nM

B1: T86 vrt1 (ssRNA)
RNA: ACGAACUGCCCUCGUUUCAUCGACGCACAGACGU
modifications: 2'-F C2,U7,C9,C10,C11,U12,C24,C26,C32,U34; ribo A1,G3,G8,A23,G25,A27,G33; rest 2'-OMe; 3' idT
Kd [1, 11]: 0.9 nM

ACGAACUGCCCUCUUUUUUUUGACGCACAGACGU (ssRNA, 2'-F C and U; 2'-OH A and G; 3' idT) [T95]
Kd [6]: 12 nM

ACGAACUGCCCUCGUUUCAUCGACGCACAGACGU (ssRNA, 2'-F C9,C10,C11,C24,G25,C26; rest 2'-OMe; 3' idT) [T86 vrt7]
Kd [7, 11]: 50 nM

ACGAACUGCCCUCGUUUCAUCGACGCACAGACGU (ssRNA, 2'-F C9,C10,C11,C24,C26; ribo G25; rest 2'-OMe; 3' idT) [T86 vrt4]
Kd [7, 11]: 12 nM

ACGAACUGCCCUCAGCAUUUCAUUGCUGACGCACAGACGU (ssRNA, 2'-F C and U; 2'-OH A and G; 3' idT) [T40]
Kd [8]: 11 nM

ACGAACUGCCCUCGAUCGACGCACAGACGU (ssRNA, 2'-F C and U; 2'-OH A and G; 3' idT) [T59]
Kd ([5]; tags: factor VIII free): 8.8 nM

ACGAACUGCCCUCAUUAUUGACGCACAGACGU (ssRNA, 2'-F C and U; 2'-OH A and G; 3' idT) [T70]
Kd [6]: 13 nM

ACGAACUGCCCUCUUUUUUGACGCACAGACGU (ssRNA, 2'-F C and U; 2'-OH A and G; 3' idT) [T94]
Kd [9]: 5 nM

ACGAACUGCCCUCUUUUUUGACGCACAGACGU (ssRNA, 2'-F C9,C10,C11,C22,G23,C24,U32; rest 2'-OMe; 3' idT) [T94 vrt6]
Kd [5, 11]: 42 nM

ACGAACUGCCCUCGAUCGACGCACAGACGU (ssRNA, mAmCmGmAmAmCfUrGfCfCfCmUmCmGmAmUmCmGmAfCrGfCrAmCmAmGmAmCmGfU-idT) [T59 vrt14]
Kd [6]: 1.7 nM

B2: T25 vrt5 (ssRNA)
RNA: ACGAACUGCCCUCAGCUACUUUCAUGUUGCUGACGCACAGACGU
modifications: rAfCrGmAmAfCfUrGfCfCfCfUfCrArGfCfUrAfCfUfUfUfCrAfUrGfUfUrGfCfUrGrAfCrGfCrAfCmAmGmAfCrGfU-idT
Kd [2]: 7.1 nM

B3: T25 vrt6 (ssRNA)
RNA: B2 RNA
modifications: rAfCrGmAmAmCfUrGfCfCfCfUfCrArGfCfUrAfCfUfUfUfCrAfUrGfUfUrGfCfUrGrAfCrGfCrAmCmAmGmAfCrGfU-idT
Kd [10]: 3.1 nM

B4: T25 vrt16 (ssRNA)
RNA: B2 RNA
modifications: rAfCmGrArAfCfUrGfCfCfCfUfCrArGfCfUrAfCfUfUfUfCrAfUrGfUfUrGfCfUrGrAfCrGfCrAfCrArGrAmCrGfU-idT
Kd ([5]; tags: factor VIII free): 4.3 nM

B5: T25 vrt14 (ssRNA)
RNA: B2 RNA
modifications: mAfCrGrArAfCfUrGfCfCfCfUfCrArGfCfUrAfCfUfUfUfCrAfUrGfUfUrGfCfUrGrAfCrGfCrAfCrArGrAfCrGmU-idT
Kd [8]: 9.2 nM

ACGAACUGCCCUCAGCUACUUUCAUGUUGCUGACGCACAGACGU (ssRNA, 2'-F C and U; 2'-OH A and G; 3' idT) [T25]
Kd [8]: 13.4 nM
